Assay results from PMC7049685, “The C-terminal tail of the yeast mitochondrial transcription factor Mtf1 coordinates template strand alignment, DNA scrunching and timely transition into elongation” (Nucleic Acids Research, 2020).
Read-outs that look alike come from different tables or passages of the source.

Legend:
[1] = target: T1, Rpo41-Mtf1 (yeast mitochondrial RNA polymerase with initiation factor Mtf1) on promoter DNA (Saccharomyces cerevisiae, UniProt P13433); test: radiometric gel assay of 2-mer RNA synthesis, Michaelis-Menten fit; format: biochemical; conditions: 21S rRNA AA promoter, [γ-32P]ATP, 1 μM Rpo41, 2 μM Mtf1-Δ20, 10 mM Mg acetate, pH 7.5, 25 °C
T1 construct: assembled on 15S or 21S rRNA promoter DNA; with Mitochondrial transcription factor 1
T1 sequence (P13433 1-1351): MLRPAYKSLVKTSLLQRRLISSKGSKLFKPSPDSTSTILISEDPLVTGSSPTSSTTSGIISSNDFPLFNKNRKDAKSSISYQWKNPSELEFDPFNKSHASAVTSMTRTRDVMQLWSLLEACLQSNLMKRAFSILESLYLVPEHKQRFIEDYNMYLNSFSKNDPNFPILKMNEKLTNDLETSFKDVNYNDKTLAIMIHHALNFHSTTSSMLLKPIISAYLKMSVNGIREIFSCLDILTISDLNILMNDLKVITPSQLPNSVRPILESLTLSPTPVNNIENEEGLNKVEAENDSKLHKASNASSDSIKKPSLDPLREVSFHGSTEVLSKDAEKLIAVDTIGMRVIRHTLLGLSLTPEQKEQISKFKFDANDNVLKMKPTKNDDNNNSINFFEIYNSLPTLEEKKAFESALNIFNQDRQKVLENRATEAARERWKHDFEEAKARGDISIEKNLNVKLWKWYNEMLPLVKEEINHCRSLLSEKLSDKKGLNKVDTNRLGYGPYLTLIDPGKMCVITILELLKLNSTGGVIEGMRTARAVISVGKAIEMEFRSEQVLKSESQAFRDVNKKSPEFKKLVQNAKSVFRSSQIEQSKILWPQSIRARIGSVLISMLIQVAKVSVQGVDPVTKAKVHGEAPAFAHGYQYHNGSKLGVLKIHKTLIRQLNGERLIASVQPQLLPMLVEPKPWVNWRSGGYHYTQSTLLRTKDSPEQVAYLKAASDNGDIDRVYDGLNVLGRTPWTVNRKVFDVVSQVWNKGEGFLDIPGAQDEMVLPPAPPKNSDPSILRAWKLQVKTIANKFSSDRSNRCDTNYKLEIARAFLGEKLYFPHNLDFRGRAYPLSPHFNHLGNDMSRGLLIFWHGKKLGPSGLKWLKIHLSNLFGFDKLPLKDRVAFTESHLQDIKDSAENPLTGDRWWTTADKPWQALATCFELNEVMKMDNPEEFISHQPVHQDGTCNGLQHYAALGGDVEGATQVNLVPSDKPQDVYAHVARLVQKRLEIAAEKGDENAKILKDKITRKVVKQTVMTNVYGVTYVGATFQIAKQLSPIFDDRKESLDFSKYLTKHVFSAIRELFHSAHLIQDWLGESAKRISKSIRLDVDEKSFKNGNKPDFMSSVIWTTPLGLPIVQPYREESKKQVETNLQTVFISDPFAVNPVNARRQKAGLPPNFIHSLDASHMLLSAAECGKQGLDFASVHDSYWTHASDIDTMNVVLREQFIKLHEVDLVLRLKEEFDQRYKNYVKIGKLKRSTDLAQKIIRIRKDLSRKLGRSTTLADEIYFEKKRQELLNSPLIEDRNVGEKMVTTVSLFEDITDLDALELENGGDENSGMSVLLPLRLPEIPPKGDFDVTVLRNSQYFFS
T1 sequence (P14908 2-341 partner): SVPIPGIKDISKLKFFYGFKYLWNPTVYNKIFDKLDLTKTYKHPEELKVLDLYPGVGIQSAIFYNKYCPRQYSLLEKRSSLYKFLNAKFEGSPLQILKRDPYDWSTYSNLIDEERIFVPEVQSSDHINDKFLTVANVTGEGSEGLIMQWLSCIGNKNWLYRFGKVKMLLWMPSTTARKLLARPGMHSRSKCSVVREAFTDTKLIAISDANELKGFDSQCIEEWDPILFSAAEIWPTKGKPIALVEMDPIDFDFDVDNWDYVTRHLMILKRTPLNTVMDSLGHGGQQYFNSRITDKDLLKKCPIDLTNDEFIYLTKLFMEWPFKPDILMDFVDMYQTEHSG

[2] = target: T1, Rpo41-Mtf1 (yeast mitochondrial RNA polymerase with initiation factor Mtf1) on promoter DNA; test: 2-aminopurine fluorescence titration, hyperbolic fit; format: binding
[3] = target: T1, Rpo41-Mtf1 (yeast mitochondrial RNA polymerase with initiation factor Mtf1) on promoter DNA; test: as above; format: binding; conditions: composite Kd of +1 and +2 initiating ATP; 15S rRNA AA promoter with 2AP at -1 (200 nM), 400 nM Rpo41 and Mtf1-Δ20, 10 mM Mg acetate, pH 7.5, 25 °C
[4] = substrate: Nc1ncnc2c1ncn2[C@@H]1O[C@H](COP(=O)(O)OP(=O)(O)OP(=O)(O)O)[C@@H](O)[C@H]1O; test: radiometric gel assay of 2-mer RNA synthesis, Michaelis-Menten fit; format: biochemical, Saccharomyces cerevisiae; conditions: 21S rRNA AA promoter, [γ-32P]ATP, 1 μM Rpo41, 2 μM Mtf1, 10 mM Mg acetate, pH 7.5, 25 °C
Rpo41;Mtf1-Δ20 = Rpo41;Mtf1-Δ20 (Saccharomyces cerevisiae;Saccharomyces …, UniProt P13433;P14908 28-1351;1-321, |); test: fluorescence anisotropy; 10 mM Mg acetate; 50 mM Tris-acetate pH 7.5, 100 mM potassium glutamate, 10 mM magnesium acetate, 0.01% Tween-20, 25 °C; 5 nM TAMRA-DNA; conditions: protein: recombinant;recombinant; tags: ;; copies: 1;1; label: TAMRA at 5' end of template strand (strand 2); blunt
Sequence of Rpo41;Mtf1-Δ20 (P14908 1-321, stated change not applied, chain 2 of 2, one chain of several): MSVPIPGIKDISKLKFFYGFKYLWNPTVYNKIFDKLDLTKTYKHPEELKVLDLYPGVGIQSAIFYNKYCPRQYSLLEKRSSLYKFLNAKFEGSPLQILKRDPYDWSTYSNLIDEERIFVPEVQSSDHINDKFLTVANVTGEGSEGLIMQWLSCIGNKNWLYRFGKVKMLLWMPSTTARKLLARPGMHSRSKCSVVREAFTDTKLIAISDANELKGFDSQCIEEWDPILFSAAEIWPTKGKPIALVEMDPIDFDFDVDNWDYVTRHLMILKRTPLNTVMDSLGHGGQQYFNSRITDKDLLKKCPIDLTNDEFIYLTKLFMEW

Rpo41;Mtf1-WT [5] = target: T2, Rpo41;Mtf1-WT (Saccharomyces cerevisiae;Saccharomyces …, UniProt P13433;P14908 28-1351;1-341, |); test: as above; conditions: protein: recombinant;recombinant; tags: ;; copies: 1;1; label: TAMRA at 5' end of template strand (strand 2); blunt
Rpo41;Mtf1-Δ16 = Rpo41;Mtf1-Δ16 (Saccharomyces cerevisiae;Saccharomyces …, UniProt P13433;P14908 28-1351;1-325, |); test: fluorescence anisotropy; 10 mM Mg acetate; Kd in Figure S2C table not in the material; 50 mM Tris-acetate pH 7.5, 100 mM potassium glutamate, 10 mM magnesium acetate, 0.01% Tween-20, 25 °C; 5 nM TAMRA-DNA; conditions: protein: recombinant;recombinant; tags: ;; copies: 1;1; label: TAMRA at 5' end of template strand (strand 2); blunt
Sequence of Rpo41;Mtf1-Δ16 (P14908 1-325, stated change not applied, one chain of several): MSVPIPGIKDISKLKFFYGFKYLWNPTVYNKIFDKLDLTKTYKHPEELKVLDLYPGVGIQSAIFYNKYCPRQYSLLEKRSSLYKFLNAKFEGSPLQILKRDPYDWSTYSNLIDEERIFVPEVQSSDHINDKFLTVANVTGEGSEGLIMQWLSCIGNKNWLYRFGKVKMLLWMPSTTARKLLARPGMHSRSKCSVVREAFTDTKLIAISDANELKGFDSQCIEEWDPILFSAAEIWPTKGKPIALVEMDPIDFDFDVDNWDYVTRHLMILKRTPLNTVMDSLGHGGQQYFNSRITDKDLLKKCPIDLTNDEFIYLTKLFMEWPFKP

Rpo41;Mtf1-WT [6] = target: T2, Rpo41;Mtf1-WT; test: single-molecule FRET; no initiating nucleotides; EFRET 0.14 to 0.38; 50 mM Tris-acetate pH 7.5, 100 mM potassium glutamate, 10 mM magnesium acetate, 0.01% Tween-20, 25 °C; 5 nM TAMRA-DNA; conditions: protein: recombinant;recombinant; tags: ;; copies: 1;1; label: FRET donor and acceptor (Cy3, Cy5)

With `Nc1ncnc2c1ncn2[C@@H]1O[C@H](COP(=O)(O)OP(=O)(O)OP(=O)(O)O)[C@@H](O)[C@H]1O` [ATP] the Km [1] was 364 µM, the Kd [2] was 65 µM and the Kd [3] was 500 µM.

B1: Rpo41-Mtf1 (yeast mitochondrial RNA polymerase with initiation factor Mtf1) on promoter DNA (Saccharomyces cerevisiae S288C) (protein)
chain: MLRPAYKSLVKTSLLQRRLISSKGSKLFKPSPDSTSTILISEDPLVTGSSPTSSTTSGIISSNDFPLFNKNRKDAKSSISYQWKNPSELEFDPFNKSHASAVTSMTRTRDVMQLWSLLEACLQSNLMKRAFSILESLYLVPEHKQRFIEDYNMYLNSFSKNDPNFPILKMNEKLTNDLETSFKDVNYNDKTLAIMIHHALNFHSTTSSMLLKPIISAYLKMSVNGIREIFSCLDILTISDLNILMNDLKVITPSQLPNSVRPILESLTLSPTPVNNIENEEGLNKVEAENDSKLHKASNASSDSIKKPSLDPLREVSFHGSTEVLSKDAEKLIAVDTIGMRVIRHTLLGLSLTPEQKEQISKFKFDANDNVLKMKPTKNDDNNNSINFFEIYNSLPTLEEKKAFESALNIFNQDRQKVLENRATEAARERWKHDFEEAKARGDISIEKNLNVKLWKWYNEMLPLVKEEINHCRSLLSEKLSDKKGLNKVDTNRLGYGPYLTLIDPGKMCVITILELLKLNSTGGVIEGMRTARAVISVGKAIEMEFRSEQVLKSESQAFRDVNKKSPEFKKLVQNAKSVFRSSQIEQSKILWPQSIRARIGSVLISMLIQVAKVSVQGVDPVTKAKVHGEAPAFAHGYQYHNGSKLGVLKIHKTLIRQLNGERLIASVQPQLLPMLVEPKPWVNWRSGGYHYTQSTLLRTKDSPEQVAYLKAASDNGDIDRVYDGLNVLGRTPWTVNRKVFDVVSQVWNKGEGFLDIPGAQDEMVLPPAPPKNSDPSILRAWKLQVKTIANKFSSDRSNRCDTNYKLEIARAFLGEKLYFPHNLDFRGRAYPLSPHFNHLGNDMSRGLLIFWHGKKLGPSGLKWLKIHLSNLFGFDKLPLKDRVAFTESHLQDIKDSAENPLTGDRWWTTADKPWQALATCFELNEVMKMDNPEEFISHQPVHQDGTCNGLQHYAALGGDVEGATQVNLVPSDKPQDVYAHVARLVQKRLEIAAEKGDENAKILKDKITRKVVKQTVMTNVYGVTYVGATFQIAKQLSPIFDDRKESLDFSKYLTKHVFSAIRELFHSAHLIQDWLGESAKRISKSIRLDVDEKSFKNGNKPDFMSSVIWTTPLGLPIVQPYREESKKQVETNLQTVFISDPFAVNPVNARRQKAGLPPNFIHSLDASHMLLSAAECGKQGLDFASVHDSYWTHASDIDTMNVVLREQFIKLHEVDLVLRLKEEFDQRYKNYVKIGKLKRSTDLAQKIIRIRKDLSRKLGRSTTLADEIYFEKKRQELLNSPLIEDRNVGEKMVTTVSLFEDITDLDALELENGGDENSGMSVLLPLRLPEIPPKGDFDVTVLRNSQYFFS
notes: assembled on 15S or 21S rRNA promoter DNA; with Mitochondrial transcription factor 1
For B1, the Km [4] was 165 µM and the kcat [4] was 0.4 s⁻¹.

B2: 15S rRNA AA promoter -12 to +8 (dsDNA)
DNA 1: TATTATATAAGTAATAAATA
DNA 2: TATTTATTACTTATATAATA
With B2 the Kd (Rpo41;Mtf1-Δ20) was 0.00081 ± 0.0001 µM, the Kd (Rpo41;Mtf1-WT [5]) was 0.00012 ± 5e-05 µM and the binding signal (Rpo41;Mtf1-Δ16) was ~7 fold weaker than Mtf1-WT.

B3: smFRET promoter DNA template (position 0) (dsDNA)
DNA 1: TGGCCACGGCAGCGAGGCTATTATATATATAAGTAGTAACAAGTAGAATA
DNA 2: TATTCTACTTGTTACTACTTATATATATAATAGCCTCGCTGCCGTGGCCA
B3: binds (Rpo41;Mtf1-WT [6]).
